Data from patent publication US20150080242A1 (UNIVERSITY OF MASSACHUSETTS, published 2015).

How the values were obtained:
[1] = biological target: OmpG-PEG2-biotin (Escherichia coli) (UniProt P76045); test: single channel recording of one OmpG-PEG2-biotin pore in a planar lipid bilayer, dwell times of binding events
[2] = biological target: OmpG-PEG2-biotin (Escherichia coli) (UniProt P76045); test: single channel recording of one OmpG-PEG2-biotin pore, inter-event intervals against mAb concentration
[3] = biological target: OmpG-PEG2-biotin (Escherichia coli) (UniProt P76045); test: cell-based or functional assay
[4] = biological target: OmpG-PEG2-biotin (Escherichia coli) (UniProt P76045); test: single channel recording of one OmpG-PEG2-biotin pore, 1 nM mAb
[5] = biological target: OmpG-PEG2-biotin (Escherichia coli) (UniProt P76045); test: single channel recording of one OmpG-PEG2-biotin pore, from koff and kon
BSA = biological target: T1, BSA (UniProt P02769 25-607); test: single channel recording in planar lipid bilayer
T1 construct: Control protein
T1 sequence (P02769 25-607 limits assumed): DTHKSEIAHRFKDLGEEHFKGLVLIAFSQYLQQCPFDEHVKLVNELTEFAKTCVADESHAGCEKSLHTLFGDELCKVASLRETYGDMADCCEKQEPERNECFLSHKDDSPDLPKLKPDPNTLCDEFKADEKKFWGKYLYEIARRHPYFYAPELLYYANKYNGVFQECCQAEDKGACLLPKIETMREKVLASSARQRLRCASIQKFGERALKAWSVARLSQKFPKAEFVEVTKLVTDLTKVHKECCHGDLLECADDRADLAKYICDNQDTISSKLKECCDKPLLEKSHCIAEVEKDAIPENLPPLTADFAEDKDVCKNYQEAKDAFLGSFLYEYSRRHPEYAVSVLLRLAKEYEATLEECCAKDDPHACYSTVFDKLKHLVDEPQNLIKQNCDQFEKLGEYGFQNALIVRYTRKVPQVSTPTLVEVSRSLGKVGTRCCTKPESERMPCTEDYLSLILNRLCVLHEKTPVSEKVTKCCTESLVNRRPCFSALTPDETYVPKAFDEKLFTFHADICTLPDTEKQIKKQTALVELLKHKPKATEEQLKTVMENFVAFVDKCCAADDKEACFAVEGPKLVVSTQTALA

| Molecule | koff [1] | kon [2] | Event frequency [3] | Gating duration [3] | Inter-event duration [3] | Open probability [3] | Relative conductance of open state (%) [3] | open probability of the mAb bound state at -50 mV [3] | mean inter-event interval at 1 nM mAb [4] | Kd [5] | binding result (BSA) |
| --- | --- | --- | --- | --- | --- | --- | --- | --- | --- | --- | --- |
| Mouse anti-biotin monoclonal antibody (MS-1048-P1, Thermo Scientific) | 0.25 s⁻¹ | 2.3e+07 M⁻¹ s⁻¹ | 201 s⁻¹ | 4.2 s | 3.67 s | 0.52 | 86.4% | 0.4 | 74.5 s | 11.2 nM | – |
| OmpG-PEG2-biotin (other, maleimide-PEG2-biotin on Cys 224 (D224C, loop 6), also called OmpG-PEG2-Biotin pore; OmpG-biotin) GEERNDWHFNIGAMYEIENVEGYGEDMDGLAEPSVYFNAANGPWRIALAYYQEGPVDYSAGKRGTWFDRPELEVHYQFLENDDFSFGLTGGFRNYGYHYVDEPGKDTANMQRWKIAPDWDVKLTDDLRFNGWLSMYKFANDLNTTGYADTRVETETGLQYTFNETVALRVNYYLERGFNMDDSRNNGEFSTQEIRAYLPLTLGNHSVTPYTRIGLDRWSNWDWQCDIEREGHDFNRVGLFYGYDFQNGLSVSLEYAFEWQDHDEGDSDKFHYAGVGVNYSF | – | – | – | – | – | – | – | – | – | – | no binding (tested: 1 µM) |
